Results from publication PMC11357854, “Molecular insights into the regulatory landscape of PKC-related kinase-2 (PRK2/PKN2) using targeted small compounds” (The Journal of Biological Chemistry, 2024).
Substitutions are numbered along the chain they refer to. Numbers in names are those of the source. No end group written: not given here. *: point of attachment. Biotin = O=C1N[C@H]2[C@H](CS[C@H]2CCCCC(=O)*)N1

T1: His-PDK1_(50-359) [PRK2-pocket] (UniProt O15530 50-359, K76Q | I119V | V127L | T128M | R131K | T148C | L155V)
T1 construct: also called PDK1 [PRK2-pocket]; His-PDK1 [PIF-pocket PRK2]; source: Sf9 (Bac-to-Bac), purified (nickel-nitrilotriacetic acid, gel filtration)
T1 sequence (looked up): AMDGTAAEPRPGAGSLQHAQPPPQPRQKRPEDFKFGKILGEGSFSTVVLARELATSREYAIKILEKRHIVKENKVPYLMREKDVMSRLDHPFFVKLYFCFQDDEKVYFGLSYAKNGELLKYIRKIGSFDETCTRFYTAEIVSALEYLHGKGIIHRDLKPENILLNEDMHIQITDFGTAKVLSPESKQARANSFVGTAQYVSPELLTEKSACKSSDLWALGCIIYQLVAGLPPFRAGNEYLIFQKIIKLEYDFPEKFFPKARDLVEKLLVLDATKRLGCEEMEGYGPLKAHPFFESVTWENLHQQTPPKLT

B1: GST-PRK2_(643-984) WT (domain or fragment)
chain: not shown
modifications: phosphorylated at the activation loop (Thr816 in PRK2)
notes: PKC-related kinase 2 (PRK2/PKN2), catalytic domain with the C-terminal PIF/HM region, lacking the N-terminal 642 residues; also called isolated catalytic domain of PRK2; GST-PRK2 CD WT; source: HEK293T, transient transfection (pEBG2T-derived plasmid), purified
B2: GST-PRK2_(643-984) [T958A] (domain or fragment)
chain: not shown
modifications: phosphorylated at the activation loop (Thr816 in PRK2)
notes: source: HEK293T, transient transfection (pEBG2T-derived plasmid), purified
B3: His-PDK1_(1-556) (enzyme, UniProt O15530 1-556, looked up)
chain: MARTTSQLYDAVPIQSSVVLCSCPSPSMVRTQTESSTPPGIPGGSRQGPAMDGTAAEPRPGAGSLQHAQPPPQPRKKRPEDFKFGKILGEGSFSTVVLARELATSREYAIKILEKRHIIKENKVPYVTRERDVMSRLDHPFFVKLYFTFQDDEKLYFGLSYAKNGELLKYIRKIGSFDETCTRFYTAEIVSALEYLHGKGIIHRDLKPENILLNEDMHIQITDFGTAKVLSPESKQARANSFVGTAQYVSPELLTEKSACKSSDLWALGCIIYQLVAGLPPFRAGNEYLIFQKIIKLEYDFPEKFFPKARDLVEKLLVLDATKRLGCEEMEGYGPLKAHPFFESVTWENLHQQTPPKLTAYLPAMSEDDEDCYGNYDNLLSQFGCMQVSSSSSSHSLSASDTGLPQRSGSNIEQYIHDLDSNSFELDLQFSEDEKRLLLEKQAGGNPWHQFVENNLILKMGPVDKRKGLFARRRQLLLTEGPHLYYVDPVNKVLKGEIPWSQELRPEAKNFKTFFVHTPNRTYYLMDPSGNAHKWCRKIQEVWRQRYQSHPDAAVQ
notes: also called full-length PDK1; His-PDK1 FL; source: Sf9 (Bac-to-Bac), purified (nickel-nitrilotriacetic acid, gel filtration)
B4: His-PDK1_(50-359) (domain or fragment, UniProt O15530 50-359, looked up)
chain: T1 sequence (looked up) with Q27K, V70I, L78V, M79T, K82R, C99T, V106L
notes: also called catalytic domain of PDK1; source: Sf9 (Bac-to-Bac), purified (nickel-nitrilotriacetic acid, gel filtration)
B5: biotin-PKLtide (peptide)
peptide: Biotin-PKLQRQKKIFSKQQG
notes: polypeptide comprising the pseudosubstrate PKL region of PRK2; source: synthetic peptide (JPT Peptide Technologies)
B6: PIFtide (peptide)
peptide: REPRILSEEEQEMFRDFDYIADWC
notes: also called polypeptide PIF; HM polypeptide derived from the C terminus of PRK2; source: synthetic peptide (JPT Peptide Technologies)
B7: biotin-PIFtide (Cys → Ser) (peptide)
peptide: Biotin-REPRILSEEEQEMFRDFDYIADWS
notes: PIFtide, C-terminal region of PRK2, with the last Cys replaced by Ser; source: synthetic peptide (Pepscan)

Experiments:
Conditions in all cases: both partners purified
His-PDK1_(1-556) [1] = target: B3; assay: AlphaScreen or HTRF; His-PDK1 fixed at 20 nM against varied GST-PRK2 constructs; nickel chelate acceptor beads and glutathione donor beads; 50 mM Tris-HCl pH 7.4 (or 20 mM Hepes pH 7.5), 100 mM NaCl, 1 to 2 mM DTT, 0.01% Tween 20, 0.1% BSA; 90 min at room temperature
His-PDK1_(1-556) [2] = target: B3; assay: AlphaScreen or HTRF; competitive displacement of His-PDK1 / GST-PRK2 [T958A] complexes by varied PIFtide; 30 to 40 nM PDK1 versus 5 to 10 nM PRK2; nickel chelate acceptor beads and glutathione donor beads
GST-PRK2_(1-984) [T958A] = target: T2, GST-PRK2_(1-984) [T958A] (UniProt Q16513 1-984, T958A, phosphorylated at the activation loop (Thr816 in PRK2)); assay: as above
T2 construct: also called full-length PRK2 T958A; source: HEK293T, transient transfection (pEBG2T-derived plasmid), purified

GST-PRK2_(1-984) WT = target: T3, GST-PRK2_(1-984) WT (UniProt Q16513 1-984, phosphorylated at the activation loop (Thr816 in PRK2)); assay: AlphaScreen or HTRF; His-PDK1 fixed at 20 nM against varied GST-PRK2 constructs; nickel chelate acceptor beads and glutathione donor beads; 50 mM Tris-HCl pH 7.4 (or 20 mM Hepes pH 7.5), 100 mM NaCl, 1 to 2 mM DTT, 0.01% Tween 20, 0.1% BSA; 90 min at room temperature
T3 construct: also called full-length PRK2; PKN2; source: HEK293T, transient transfection (pEBG2T-derived plasmid), purified

GST-PRK2_(643-984) WT [3] = target: B1; assay: AlphaScreen or HTRF; His-PDK1 and GST-PRK2 at fixed concentrations (30 to 50 nM PDK1, 5 to 50 nM PRK2) with varied small compounds (PS210, GSK2334470, UCN-01, Y-27632); nickel chelate acceptor beads and glutathione donor beads
[4] = target: B2; assay: as above
GST-PRK2_(643-984) WT [5] = target: B1; assay: AlphaScreen or HTRF; GST-PRK2_(643-984) (1.5 nM) and biotin-PKLtide (75 nM) with varied compounds or 5% DMSO; anti-GST-coated acceptor beads and streptavidin-coated donor beads
His-PDK1_(50-359) [6] = target: B4; assay: AlphaScreen or HTRF; competitive displacement of His-PDK1 / GST-PRK2 [T958A] complexes by varied PIFtide; 30 to 40 nM PDK1 versus 5 to 10 nM PRK2; nickel chelate acceptor beads and glutathione donor beads
His-PDK1_(50-359) [7] = target: B4; assay: AlphaScreen or HTRF; His-tagged PDK1 construct (30 nM) and biotin-PIFtide (Cys → Ser; 10 or 30 nM), cross-titration and displacement by small compounds; nickel chelate and streptavidin-coated beads
[8] = target: T1, His-PDK1_(50-359) [PRK2-pocket]; assay: as above

B1
binding result (His-PDK1_(1-556) [1]): binds

B2
binding result (His-PDK1_(1-556) [2]): binds

B3
binding result (GST-PRK2_(1-984) [T958A]): binds
binding result (GST-PRK2_(1-984) WT): binds

B4
binding result (GST-PRK2_(1-984) [T958A]): binds
binding result (GST-PRK2_(643-984) WT [3]): binds
binding result [4]: binds
binding result (GST-PRK2_(1-984) WT): binds

B5
binding result (GST-PRK2_(643-984) WT [5]): binds

B6
binding result (His-PDK1_(50-359) [6]): binds
binding result (His-PDK1_(1-556) [2]): binds

B7
binding result (His-PDK1_(50-359) [7]): binds
binding result [8]: binds
